According to patent publication US20260125454A1 (SHANGHAI JUNSHI BIOSCIENCES, published 2026):
Residue numbers refer to the chain shown, from its start. Several values for one entry are separate records, joined by “and”; a condition that tells them apart may be missing. Equal entries are not always repeated. Where two headings read alike, the source gives them in different places. Bridges are numbered along the chain shown (N, C = ends). Where no end group is shown, it is not given here. The star is where a group is joined. Biotin = O=C1N[C@H]2[C@H](CS[C@H]2CCCCC(=O)*)N1

B1: C71 (antibody, V domains shown)
VH: EVQLQQSGPELVKPGASVKISCKTSGYTFIDFNMHWVKQSHGKSLEWIGYIYPYNGDVVYNQNFTNKATLTVDSSSSTAYMELRRVTSEDSAIYYCAREGLGGYWGQGTTLTVSS
VL: DIVLTQSPASLAVSLGQRATISCKASQNIDYDGYAYLNWYQQKPGQPPKVLIYSVFNLESGIPARFSGSGSGTDFTLNIHPVEEEDAATYYCQQSNEFPYTFGGGTKLEVK
notes: 1F5-HC + 1A2-LC2; chimeric, human constant regions
B2: C232 (antibody, V domains shown)
VH: EVQLQQSGPELVKPGASMKISCKASGYSFTGYTMNWVKQSHGNNLEWIGLINPYIGNTHYNQKFKDKATFTVDRSSSTAYMALLSLTSEDSAVYYCARELDSGFDYWGQGTTLTVSS
VL: B1 VL
notes: 3C1-HC + 1A2-LC2; chimeric, human constant regions
B3: C246 (antibody, V domains shown)
VH: B2 VH
VL: B1 VL with A35T, V55I, F98V, V110I
notes: 3C1-HC + 3E5-LC; chimeric, human constant regions
B4: C255 (antibody, V domains shown)
VH: EVQLQQSGPELVKPGASVKISCKTSGYTFTDYNMHWVKQSHGKSLEWIGYISPYNGGTAYNQKFKFKSTLTVDTSSSTAYMELRSLTSEDSAVYYCAREGLGGYWGQGTTLTVSS
VL: B1 VL
notes: 3E5-HC + 1A2-LC2; chimeric, human constant regions
B5: C235 (antibody, V domains shown)
VH: B2 VH
VL: B1 VL with Y31F, L37M, Q42H, K49R, N96H, F98V, K107N, V110I
notes: 3C1-HC + 1F5-LC1; chimeric, human constant regions
B6: C253 (antibody, V domains shown)
VH: B2 VH
VL: B1 VL with A9D, D32G, A35S, L37M, N78T, F98A, V110I, K111R
notes: 3C1-HC + 3H10-LC2; chimeric, human constant regions
B7: C347 (antibody, V domains shown)
VH: EVQLQQSGPELVQPGASVKISCKASGYTFTDYNMHWVKQSHGESLEWIGYIYPYNGHTVYNQKFRNKATMTVDSSSSTAYMDLRSLTSEDSAVYYCAKEGLGGYWGQGTTLTVSS
VL: B1 VL
notes: 3H10-HC + 1A2-LC2; chimeric, human constant regions
B8: C74 (antibody, V domains shown)
VH: B1 VH
VL: B1 VL with Y31F, L37M, Q42H, K49R, N96H, F98V, K107N, V110I
notes: 1F5-HC + 1F5-LC1; chimeric, human constant regions
B9: C245 (antibody, V domains shown)
VH: B2 VH
VL: DVLMTQTPLSLPVSLGDQASLSCRSSQNIVHSNGDTYLEWYLQKPGQSPKLLIYKVSNRFSGVPDRFSGSGSGTDFTLKISRVEAEDLGVYYCYQGSHVPWTFGGGTKLEIK
notes: 3C1-HC + 3C1-LC; chimeric, human constant regions; also called chimeric antibody C245
B10: hu224 Fab (Fab, V domains shown)
VH: QVQLVQSGAEVKKPGASVKVSCKASGYSFTGYTMNWVRQAPGQRLEWMGLINPYIGNTHYNQKFKDRVTFTVDRSSSTAYMELSSLRSEDTAVYYCARELDSGFDYWGQGTLVTVSS
VL: DVVMTQSPDSLAVSLGERATINCRSSQNIVHSNGDTYLEWYQQKPGQPPKLLIYKVSNRFSGVPDRFSGSGSGTDFTLTISSLQAEDVAVYYCYQGSHVPWTFGQGTKLEIK
notes: also called Fab monomer fragments derived from humanized antibody hu224

Tests used:
[1] = target: CGRP antigen; test: cell-based or functional assay
[2] = target: T1, Biotin-huCGRPaSA (human, not fully specified; biotin (position not given)); test: ELISA, transfection supernatant, biotin-CGRP on streptavidin
T1 construct: exact construct ('aSA') not explained; also called Biotin CGRPaSA; full-length (1-37) CGRP
T1 peptide: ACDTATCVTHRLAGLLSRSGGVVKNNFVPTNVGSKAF
Protocol: Streptavidin was diluted to 0.5 μg/mL by using PBS (Hyclone) and added into a plate at 100 μL/well. The plate was incubated in a thermostat incubator at 37° C. for 90 min and then washed. 2% BSA was added to the plate at 200 μL/well, and the plate was incubated in the thermostat incubator at 37° C. for 90 min and washed. Biotin-huCGRPaSA was diluted to 2.0 μg/mL with 2% BSA and added into the plate at 100 μL/well, and the plate was incubated in the thermostat incubator at 37° C. for 60 min. The reference antibody (47-RM) was diluted to 2500 ng/ml with a diluent (2% BSA) and serially 4-fold diluted to 0.15 ng/mL, and the chimeric antibodies were diluted with a cell supernatant stock solution. All the chimeric antibody solutions and the reference antibody solution were added into plates at 80 μL/well, and the plates were incubated in a thermostat incubator at 37° C. for 60 min and washed. An HRP-conjugated mouse anti-human antibody IgG4 (manufacturer: Southern Biotech, Cat. No. 9200-05; Fc specificity) was diluted 5000-fold with 2% BSA and added into the plates at 100 μL/well, and the plates were incubated in the thermostat incubator at 37° C. for 60 min and washed. 0.1 mg/mL chromogenic reagent TMB was carefully added at 100 μL/well to avoid bubbles, and the system was incubated at 37° C. for 10 min away from light for chromogenic reaction. Finally, a 2 M hydrochloric acid solution was added at 100 μL/well to stop the reaction while avoiding bubbles, and the plates were read on a microplate reader within 10 min (the detection wavelength was 450 nm; the reference wavelength was 620 nm).

[3] = target: T1, Biotin-huCGRPaSA; test: ELISA, purified antibody; relative to reference 47-RM-20190815
Protocol: Streptavidin was diluted to […] by using PBS (Hyclone) and added into a plate at 100 μL/well. The plate was incubated in a thermostat incubator at 37° C. for 90 min and then washed. 2% BSA was added to the plate at 200 μL/well, and the plate was incubated in the thermostat incubator at 37° C. for 90 min and washed. Biotin-huCGRPaSA was diluted to 2.0 μg/mL with 2% BSA and added into the plate at 100 μL/well, and the plate was incubated in the thermostat incubator at 37° C. for 60 min. The chimeric antibodies in Table 3 and reference antibody (47-RM-20190815) were diluted to 1000 ng/ml with a diluent (2% BSA) and serially 10-fold diluted to 1 ng/mL. All the chimeric antibody solutions and the reference antibody solution were added into plates at 100 μL/well, and the plates were incubated in a thermostat incubator at 37° C. for 60 min and washed. An HRP-conjugated mouse anti-human antibody IgG4 (manufacturer: Southern Biotech, Cat. No. 9200-05; Fc specificity) was diluted 5000-fold with 2% BSA and added into the plates at 100 μL/well, and the plates were incubated in the thermostat incubator at 37° C. for 60 min and washed. 0.1 mg/mL chromogenic reagent TMB was carefully added at 100 μL/well to avoid bubbles, and the system was incubated at 37° C. for 5 min away from light for chromogenic reaction. Finally, a 2 M hydrochloric acid solution was added at 100 μL/well to stop the reaction while avoiding bubbles, and the plates were read on a microplate reader within 10 min (the detection wavelength was 450 nm; the reference wavelength was 620 nm). EC₅₀ was fit by using a four-parameter logistic regression (4PL) model.

[4] = target: T2, Biotin-1-19 polypeptide (human, disulfide 2-7; not fully specified (N-terminus); printed as Biotin-Linker(G5)-ACDTATCVTHRLAGLLSRS; ends not checked; also: biotin, position not given here); test: ELISA, transfection supernatant, biotin-CGRP(1-19) on streptavidin
T2 construct: also called fragment CGRP (1-19); truncated (1-19) CGRP
T2 peptide: ACDTATCVTHRLAGLLSRS
Protocol: Streptavidin was diluted to 0.5 μg/mL by using PBS (Hyclone) and added into a plate at 100 μL/well. The plate was incubated in a thermostat incubator at 37° C. for 90 min and then washed. 2% BSA was added to the plate at 200 μL/well, and the plate was incubated in the thermostat incubator at 37° C. for 90 min and washed. Biotin-1-19 polypeptide was diluted to 2.0 μg/mL with 2% BSA and added into the plate at 100 μL/well, and the plate was incubated in the thermostat incubator at 37° C. for 60 min. The reference antibody (Lily) was diluted to 2500 ng/ml with a diluent (2% BSA) and then serially 4-fold diluted to 0.15 ng/ml. For chimeric antibodies, the stock solution was diluted. All the chimeric antibody solutions and the reference antibody solution were added into plates at 80 μL/well, and the plates were incubated in a thermostat incubator at 37° C. for 60 min and washed. An HRP-conjugated mouse anti-human antibody IgG4 (manufacturer: Southern Biotech, Cat. No. 9200-05; Fc specificity) was diluted 5000-fold with 2% BSA and added into the plates at 100 µL/well, and the plates were incubated in the thermostat incubator at 37° C. for 60 min and washed. 0.1 mg/mL chromogenic reagent TMB was carefully added at 100 μL/well to avoid bubbles, and the system was incubated at 37° C. for 10 min away from light for chromogenic reaction. Finally, a 2 M hydrochloric acid solution was added at 100 μL/well to stop the reaction while avoiding bubbles, and the plates were read on a microplate reader within 10 min (the detection wavelength was 450 nm; the reference wavelength was 620 nm).

[5] = target: CGRP antigen; test: cell-based or functional assay; remark: listed apart in the source
[6] = target: CGRP antigen; test: cell-based or functional assay; remark: listed apart in the source
[7] = target: CGRP antigen; test: cell-based or functional assay; remark: listed apart in the source
[8] = target: T3, hCGRP(1-19) (human, N-terminal biotin; CYS residues at positions 7 and 12 theoretically form 1 intrachain disulfide bond); test: BLI (Octet), biotin-peptide on SA probe, 45 nM Fab
T3 construct: also called polypeptide 1-19
T3 peptide: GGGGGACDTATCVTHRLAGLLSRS
Protocol: (§1) The kinetic parameters of C245 Fab (Fab monomer fragments derived from antibody C245) binding to six synthetic human CGRP alpha polypeptide fragments (polypeptide 1-13, polypeptide 1-19, polypeptide 1-37, polypeptide 8-19, polypeptide 8-26, and polypeptide 13-24) were determined on an Octet RBD 96e system. Human CGRP synthetic polypeptide fragments were immobilized on the surfaces of SA bioprobes (Sartorius, Cat. No. 18-5019) at the following concentrations: 46.5 nM for hCGRP (1-13), 8.5 nM for CGRP (1-19), 15.5 nM for hCGRP (1-37), 8.5 nM for hCGRP (8-19), 15.5 nM for hCGRP (8-26), and 46.5 nM for hCGRP (13-24). The immobilized synthetic human CGRP polypeptide fragments were bound to 45 nM of C245 Fab and the binding dissociation curves were fitted using analytical software.
(§2) The kinetic parameters of hu224 Fab (Fab monomer fragments derived from humanized antibody hu224) binding to four synthetic human CGRP alpha polypeptide fragments (polypeptide 1-13, polypeptide 1-19, polypeptide 1-37, and polypeptide 8-19) were determined on an Octet RBD 96e system. Human CGRP synthetic polypeptide fragments were immobilized on the surfaces of SA bioprobes (Sartorius, Cat. No. 18-5019) at the following concentrations: 8.5 nM for CGRP (1-19), 15.5 nM for hCGRP (1-37), 10 nM for hCGRP (8-19), and 15.5 nM for hCGRP (8-26). The immobilized synthetic human CGRP polypeptide fragments were bound to 45 nM of hu224 Fab and the binding dissociation curves were fitted using analytical software.

[9] = target: T4, hCGRP(1-37) (human, N-terminal biotin; C-terminal phenylalanine amide (F-NH2); CYS residues at positions 7 and 12 theoretically form 1 intrachain disulfide bond); test: BLI (Octet), biotin-peptide on SA probe, 45 nM Fab
T4 construct: also called polypeptide 1-37; full-length hCGRP (1-37) polypeptide
T4 peptide: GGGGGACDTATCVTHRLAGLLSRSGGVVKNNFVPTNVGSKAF
Protocol: as §1, §2

[10] = target: T5, hCGRP(8-26) (human, N-terminal biotin); test: BLI (Octet), biotin-peptide on SA probe, 45 nM Fab
T5 construct: also called polypeptide 8-26
T5 peptide: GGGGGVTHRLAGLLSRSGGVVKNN
Protocol: as §1, §2

[11] = target: T6, hCGRP(8-19) (human); test: BLI (Octet), biotin-peptide on SA probe, 45 nM Fab
T6 construct: also called polypeptide 8-19
T6 peptide: Biotin-GGGGGVTHRLAGLLSRS
Protocol: as §1, §2

Binder | OD value [2] | Relative activity (%) [3] | OD value [4] | also measured
B1 | 3.06 OD | 47.3% |  | Relative binding activity (%) vs Ref(Teva) [1]: 106%
B2 | 3.28 OD | 3.4% | 3.15 OD | 
B3 |  |  | 0.91 OD | 
B4 | 3.11 OD | 108% |  | Relative binding activity (%) vs Ref(Teva) [5]: 74.9%
B5 |  |  | 2.84 OD | 
B6 | 2.46 OD |  | 2.94 OD | 
B7 | 3.01 OD | 91.4% |  | Relative binding activity (%) vs Ref(Teva) [5]: 87.6%
B8 | 3.06 OD | 39.5% |  | Relative binding activity (%) vs Ref(Teva) [1]: 76%
B9 | 3.31 OD | 240% | 2.51 OD | IC50 of reference C245 [6]: 0.018 µg/mL and 0.0236 µg/mL and 0.0259 µg/mL and 0.0281 µg/mL; Relative binding activity (%) vs Ref(Teva) [7]: 116%
B10 |  |  |  | Kd [8]: 0.0823 nM; koff [8]: 2.62e-05 s⁻¹; kon [8]: 318000 M⁻¹ s⁻¹; Kd [9]: 0.288 nM; koff [9]: 7.97e-05 s⁻¹; kon [9]: 277000 M⁻¹ s⁻¹; Kd [10]: 1.18 nM; koff [10]: 0.000374 s⁻¹; kon [10]: 316000 M⁻¹ s⁻¹; Kd [11]: 0.445 nM; koff [11]: 0.000151 s⁻¹; kon [11]: 341000 M⁻¹ s⁻¹
